Target: human tissue factor (human, UniProt P13726 33-295)
Test: cell-based or functional assay

ADCC potency relative to CNTO 860 derived from C463, second experiment, 51Cr-release on HCT 116 cells: ~10 fold
B1: CNTO 860 derived from the YB2/0 host cell line C1083B (antibody, human IgG1, kappa, V domains shown)
VH: QVQLVESGGGVVQPGRSLRLSCKASGFNIKDYYMHWVRQAPGKGLEWIGLIDPENGNTIYDPKFQGRFTISADNSKNTLFLQMDSLRPEDTAVYYCARDNSYYFDYWGQGTPVTVSS
VL: DIQMTQSPSSLSASVGDRVTITCKASQDIRKYLNWYQQKPGKAPKLLIYYATSLADGVPSRFSGSGSGTDYTFTISSLQPEDIATYYCLQHGESPYTFGQGTKLEITR

Reference: patent US20090214528A1 (published 2009)
